In article PMC9316817, “Brain Delivery of IGF1R5, a Single-Domain Antibody Targeting Insulin-like Growth Factor-1 Receptor” (Pharmaceutics, 2022):

How the values were obtained:
[1] = biological target: T1, rat IGF1R ectodomain (aa31-936) (Rattus norvegicus, UniProt P24062); assay: SPR; Biacore 3000, multi-cycle kinetics; IGF1R ectodomains amine coupled on CM5 chips (about 1500-2000 RU); VHHs in flow at 20 µL/min, 300 s association, 300 s dissociation; 0.25-10 nM (IGF1R5), 1-25 nM (IGF1R5-H2); HBS-EP pH 7.4, 25 °C; 1:1 binding model; settings: both partners purified
T1 construct: insulin-like growth factor-1 receptor, rat, ectodomain, aa31-936; source: NRC Montreal

Human IGF1R ectodomain [2] = biological target: Human IGF1R ectodomain (UniProt P08069); assay: as above
[3] = biological target: mouse IGF1R ectodomain (mouse) (UniProt Q60751); assay: as above
[4] = biological target: T2, rhesus IGF1R ectodomain (aa31-932) (Macaca mulatta, UniProt I2CWY3); assay: SPR; Biacore T200, single-cycle kinetics (rhesus IGF1R); IGF1R ectodomain amine coupled on CM5 chip; VHHs in flow at 40 µL/min, 180 s association, 600 s dissociation; 0.25-10 nM (IGF1R5), 1-25 nM (IGF1R5-H2); HBS-EP pH 7.4, 25 °C; 1:1 binding model; settings: both partners purified
T2 construct: insulin-like growth factor-1 receptor, rhesus, ectodomain, aa31-932; source: NRC Montreal

Human IGF1R ectodomain [5] = biological target: Human IGF1R ectodomain (UniProt P08069); assay: SPR; acidic pH: HBS-EP MES buffer pH 5.6, 37 °C; IGF1R ectodomains amine coupled on CM5 chips; VHHs in flow, 0.25-10 nM (IGF1R5), 1-50 nM (IGF1R5-H2); 1:1 binding model
[6] = biological target: mouse IGF1R ectodomain (mouse) (UniProt Q60751); assay: as above

T1 sequence (P24062 31-936): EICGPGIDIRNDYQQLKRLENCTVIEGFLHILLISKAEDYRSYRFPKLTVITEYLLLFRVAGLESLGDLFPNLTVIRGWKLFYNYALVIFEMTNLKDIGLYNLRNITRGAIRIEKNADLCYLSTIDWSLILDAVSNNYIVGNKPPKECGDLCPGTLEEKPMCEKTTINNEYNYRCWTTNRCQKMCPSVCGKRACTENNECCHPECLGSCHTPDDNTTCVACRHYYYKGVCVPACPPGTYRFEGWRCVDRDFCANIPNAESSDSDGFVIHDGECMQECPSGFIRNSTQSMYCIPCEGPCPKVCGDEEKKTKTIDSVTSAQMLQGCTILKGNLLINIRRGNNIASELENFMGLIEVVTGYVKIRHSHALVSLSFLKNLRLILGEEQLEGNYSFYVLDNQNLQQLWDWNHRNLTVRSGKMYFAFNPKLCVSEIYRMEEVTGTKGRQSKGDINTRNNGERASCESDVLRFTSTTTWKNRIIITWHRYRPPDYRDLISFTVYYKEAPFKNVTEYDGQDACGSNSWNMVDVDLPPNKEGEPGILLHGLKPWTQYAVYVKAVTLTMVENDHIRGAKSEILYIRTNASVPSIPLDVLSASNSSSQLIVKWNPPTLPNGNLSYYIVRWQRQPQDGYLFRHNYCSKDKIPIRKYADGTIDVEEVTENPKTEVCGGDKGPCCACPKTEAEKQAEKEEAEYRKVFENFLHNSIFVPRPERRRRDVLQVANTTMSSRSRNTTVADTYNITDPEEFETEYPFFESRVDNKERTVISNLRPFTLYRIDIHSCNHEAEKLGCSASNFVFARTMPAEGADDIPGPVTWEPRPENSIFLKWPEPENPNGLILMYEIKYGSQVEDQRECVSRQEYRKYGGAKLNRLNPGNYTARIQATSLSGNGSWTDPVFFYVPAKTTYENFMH
Chain of mouse IGF1R ectodomain (mouse) (Q60751 742-936): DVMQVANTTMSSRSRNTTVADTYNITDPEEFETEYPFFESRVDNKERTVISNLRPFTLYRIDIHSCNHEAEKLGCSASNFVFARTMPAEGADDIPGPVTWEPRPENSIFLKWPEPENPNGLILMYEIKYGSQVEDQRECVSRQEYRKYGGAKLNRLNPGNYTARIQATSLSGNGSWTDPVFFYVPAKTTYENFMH
Chain of Human IGF1R ectodomain (P08069 741-935): as the sequence (Q60751 742-936) above, with V19A, F31L, P185Q, T189G, M194I counted along it
T2 sequence (I2CWY3 entry or part of it): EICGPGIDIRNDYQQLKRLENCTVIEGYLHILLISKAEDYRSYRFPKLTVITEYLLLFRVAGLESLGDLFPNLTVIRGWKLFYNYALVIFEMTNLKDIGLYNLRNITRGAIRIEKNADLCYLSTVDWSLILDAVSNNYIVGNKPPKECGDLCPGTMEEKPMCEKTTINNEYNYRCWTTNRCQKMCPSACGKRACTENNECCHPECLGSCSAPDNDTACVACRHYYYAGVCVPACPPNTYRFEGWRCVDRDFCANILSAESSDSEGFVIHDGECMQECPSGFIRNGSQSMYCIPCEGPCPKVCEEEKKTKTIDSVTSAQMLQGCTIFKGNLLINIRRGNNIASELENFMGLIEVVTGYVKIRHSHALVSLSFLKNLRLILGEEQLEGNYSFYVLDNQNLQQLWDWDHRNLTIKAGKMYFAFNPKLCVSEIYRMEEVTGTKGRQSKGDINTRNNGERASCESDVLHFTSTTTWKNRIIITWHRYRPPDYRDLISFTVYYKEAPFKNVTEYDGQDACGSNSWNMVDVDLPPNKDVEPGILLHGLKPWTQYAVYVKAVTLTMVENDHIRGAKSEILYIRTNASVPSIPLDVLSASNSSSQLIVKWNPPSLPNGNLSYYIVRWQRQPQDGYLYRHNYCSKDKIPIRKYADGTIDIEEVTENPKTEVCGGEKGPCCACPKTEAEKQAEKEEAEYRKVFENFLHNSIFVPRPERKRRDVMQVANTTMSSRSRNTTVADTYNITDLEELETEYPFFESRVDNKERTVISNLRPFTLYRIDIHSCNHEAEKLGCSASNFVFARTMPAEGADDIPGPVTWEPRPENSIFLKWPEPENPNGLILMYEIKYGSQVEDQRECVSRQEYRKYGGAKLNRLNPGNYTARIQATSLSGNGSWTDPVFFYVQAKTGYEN

Binder | Kd [1] | koff [1] | kon [1] | Kd (Human IGF1R ectodomain [2]) | koff (Human IGF1R ectodomain [2]) | kon (Human IGF1R ectodomain [2]) | Kd [3] | koff [3] | kon [3] | Kd [4] | koff [4] | kon [4] | Kd (Human IGF1R ectodomain [5]) | koff (Human IGF1R ectodomain [5]) | kon (Human IGF1R ectodomain [5]) | Kd [6] | koff [6] | kon [6]
IGF1R5 single-domain antibody (camelid VHH against insulin-like growth factor-1 receptor) (VHH, Monomeric VHH fraction isolated by SEC was used for SPR; Isolated from a phage display library of a llama immunized with the extracellular domain of human IGF1R (933 amino acids); also called wild-type IGF1R5; IGF1R5 sdAb; source: TG1 Escherichia coli, purified (HiTrap Chelating HP; preparative SEC on Superdex S75 Increase just before SPR)) VHH: QVKLEESGGGLVQAGGSLRLSCAASGRTIDNYAMAWSRQAPGKDREFVATIDWGDGGARYANSVKGRFTISRDNAKGTMYLQMNNLEPEDTAVYSCAMARQSRVNLDVARYDYWGQGTQVTVSS | 1.1 nM | 0.00038 s⁻¹ | 340000 M⁻¹ s⁻¹ | 0.64 nM | 0.00034 s⁻¹ | 530000 M⁻¹ s⁻¹ | 1.1 nM | 0.0003 s⁻¹ | 260000 M⁻¹ s⁻¹ | 0.4 nM | 0.00059 s⁻¹ | 1.5e+06 M⁻¹ s⁻¹ | 4 nM | 0.0028 s⁻¹ | 690000 M⁻¹ s⁻¹ | 4.8 nM | 0.0028 s⁻¹ | 590000 M⁻¹ s⁻¹
IGF1R5-H2, humanized variant of the IGF1R5 single-domain antibody (VHH, CDRs of m1 grafted on a human VH3 germline framework, 4 back-mutations in the Vernier zone, no camelizing back-mutations in FR2, CDR2 point mutation A57T; Kabat numbering; Changes are stated against the camelid IGF1R5; also called humanized IGF1R5-H2; source: produced and purified as described for the llama sdAbs (TG1 Escherichia coli, HiTrap Chelating HP; preparative SEC just before SPR)) VHH: QVQLVESGGGLVQPGGSLRLSCAASGRTIDNYAMAWVRQAPGKGLEWVATIDWGDGGTRYANSVKGRFTISRDNSKNTMYLQMNSLRAEDTAVYYCAMARQSRVNLDVARYDYWGQGTLVTVSS | 11 nM | 0.0026 s⁻¹ | 230000 M⁻¹ s⁻¹ | 7.6 nM | 0.0029 s⁻¹ | 380000 M⁻¹ s⁻¹ | 9.1 nM | 0.0021 s⁻¹ | 230000 M⁻¹ s⁻¹ | 17 nM | 0.0038 s⁻¹ | 230000 M⁻¹ s⁻¹ | 160 nM | 0.034 s⁻¹ | 210000 M⁻¹ s⁻¹ | 150 nM | 0.043 s⁻¹ | 290000 M⁻¹ s⁻¹
